Assay results: publication doi:10.1101/2024.09.24.614852

Biological target: tau 2N4R wild type (tau-441) (human, UniProt P10636-8 1-441)
Experiment: EMSA

B1: 24-bp duplex (dsDNA)
DNA 1: TCGACACGGAAATGTTGAATACTA
DNA 2: TAGTATTCAACATTTCCGTGTCGA
- binding result: binds
